{
  "source": "paper PMC509406",
  "key": {"[1]": {"molecular_target": "rabbit actin (Cytoskeleton, catalog #AKL95) (rabbit) (UniProt P68135)"}, "[2]": {"molecular_target": "emerin (Homo sapiens) (UniProt P50402)", "sequence (P50402 whole entry)": "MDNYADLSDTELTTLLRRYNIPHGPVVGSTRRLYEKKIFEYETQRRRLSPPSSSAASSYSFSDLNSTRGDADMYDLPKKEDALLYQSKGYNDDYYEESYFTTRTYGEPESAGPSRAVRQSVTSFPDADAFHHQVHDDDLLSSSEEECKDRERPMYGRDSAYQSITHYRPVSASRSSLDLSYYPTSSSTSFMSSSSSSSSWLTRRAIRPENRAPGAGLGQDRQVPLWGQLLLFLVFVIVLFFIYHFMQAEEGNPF", "conditions": "cited from earlier work"}, "[3]": {"molecular_target": "rabbit actin (Cytoskeleton, catalog #AKL95) (rabbit) (UniProt P68135)", "remark": "listed apart in the source"}, "[4]": {"molecular_target": "F-actin (Oryctolagus cuniculus) (UniProt P68135)", "conditions": "cited from earlier work"}},
  "data": [
    {"substance": "LAP2β (from UniProt P42167 1-454) (natural protein)", "values": [
      {"measurement": "actin polymerization assays (data not shown), activity against emerin (fold less active than emerin)", "setting": "[1]", "result": 20}
    ]},
    {"substance": "nesprin-1α (from UniProt Q8NF91)", "values": [
      {"measurement": "Kd", "setting": "[2]", "result": 4, "unit": "nM"}
    ]},
    {"substance": "tropomodulin (from UniProt P28289 1-359) (natural protein)", "values": [
      {"measurement": "length of green (pointed-end growth) segments on rhodamine–phalloidin filaments capped with capping protein, 1 μM tropomodulin", "setting": "[3]", "result": 0.09, "unit": "μm"},
      {"measurement": "length of growing (green) segments on filaments formed from gelsolin–actin seeds, 1 μM tropomodulin", "setting": "[3]", "result": 0.1, "unit": "μm"}
    ]},
    {"substance": "tropomodulin (from UniProt P28289)", "values": [
      {"measurement": "Kd", "setting": "[4]", "result": 110, "unit": "nM"}
    ]}
  ]
}
